± gives the uncertainty stated by the source.
Assay: protein stability index of a GFP-peptide fusion (yeast GPS) (PSI 1-4); higher = more stable; sorted into four equal gates, so the index is relative within each strain
How it was run: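 Tiled 17-residue peptides from yeast proteins were fused downstream of GFP on a plasmid that also expresses Cherry, and the pooled library was carried in yeast. Mid-log cultures grown in leucine-free medium were sorted into four equal gates by GFP/Cherry fluorescence ratio. Plasmids from each gate were PCR-amplified and Illumina-sequenced, and reads were assigned to strains by barcodes. Each peptide's protein stability index is the sum, over gates, of the gate's read frequency multiplied by its gate number.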

Sequence | protein stability index (doa10∆) | protein stability index (pdr5∆) | protein stability index (san1∆) | protein stability index (ubr1∆)
GEITKTENEKFISYHDK [NUT1] | 3.31 ± 0.097 | 3.35 ± 0.077 | 3.39 ± 0.057 | 3.17 ± 0.079
GEKNFTSAHLKLKEMQK [SMC4] | 3.01 ± 0.14 | 3.35 ± 0.12 | 3.27 ± 0.078 | 3.14 ± 0.24
GEKNSDDYSNEDNEMLE [YJR042W/NUP85] | – | – | 2.06 ± 0.29 | 1.89 ± 0.14
GELFLNESWKSSFEKFN [SRP72] | 3.23 ± 0.23 | 3.22 ± 0.11 | 2.79 ± 0.12 | 3.24 ± 0.073
GEQIIVHPVNEREPVPL [RRP45] | 2.85 ± 0.12 | 3.35 ± 0.12 | – | 2.9 ± 0.17
GFIDASCIAVMAGLMHF [RRP45] | 1.48 ± 0.041 | 1.55 ± 0.04 | 1.85 ± 0.082 | 1.46 ± 0.031
GFPSAPQPLFMEDPPST [YMR153W/NUP53] | 2.66 ± 0.06 | 3.08 ± 0.056 | 2.98 ± 0.053 | 2.8 ± 0.052
GGDSDANGTFMDFGVDP [RPN10] | – | – | 3.23 ± 0.13 | 2.96 ± 0.25
GGEKTVAALALLFAINS [SMC1] | 1.2 ± 0.078 | 1.27 ± 0.092 | 1.12 ± 0.23 | 1.9 ± 0.14
GGESDSALILMYKGFGL [UBP6] | 3.37 ± 0.07 | 3.41 ± 0.076 | 3.15 ± 0.085 | 3.29 ± 0.055
GGIVTVRSEMGEPIHKI [FAS1] | 3.29 ± 0.18 | 2.91 ± 0.21 | – | –
GGLKSCDLDFPLRENTN [YDL116W/NUP84] | 2.59 ± 0.058 | 2.29 ± 0.059 | 2.25 ± 0.077 | 2.2 ± 0.057
GGLQKGKLVVSQEMVPR [SIR3] | 3.03 ± 0.07 | 2.83 ± 0.13 | 2.32 ± 0.076 | 3.23 ± 0.12
GGLTKQIKEIKEVIELP [RPT6] | 3.74 ± 0.27 | – | 3.48 ± 0.27 | –
GGNFKDLSTLVHSSSPS [GAL11] | 1.48 ± 0.056 | 1.46 ± 0.045 | 1.59 ± 0.089 | 1.38 ± 0.059
GGNSNKSPPQFFYNISS [SIN4] | 2.76 ± 0.043 | 3.04 ± 0.049 | 2.76 ± 0.037 | 2.58 ± 0.041
GGRMFAPTKTWRKWNVK [RPL4A] | 2.87 ± 0.12 | 2.88 ± 0.11 | 3.07 ± 0.065 | 2.16 ± 0.056
GGTSLFGNTSTSSAPAQ [YGL172W/NUP49] | 2.17 ± 0.17 | 2.19 ± 0.096 | – | 2.15 ± 0.091
GGVDVGPSVESYELRNT [SNF5] | 2.9 ± 0.1 | 3.15 ± 0.11 | 3.04 ± 0.075 | 3.28 ± 0.079
GHNDWVSQVRVVPNEKA [ASC1] | 2.3 ± 0.1 | 2.85 ± 0.076 | 2.94 ± 0.066 | 2.69 ± 0.065
GIEYNRVTNTTSTDFPG [RPC40] | 3.33 ± 0.22 | 3.33 ± 0.14 | 2.73 ± 0.082 | 2.94 ± 0.096
GIHDGHIKKLLHQYYGD [FAS1] | 1.44 ± 0.045 | 1.8 ± 0.051 | 1.85 ± 0.098 | 1.31 ± 0.03
GIIEPSLKALASKYNCD [RPL40A] | 3.44 ± 0.17 | 3.27 ± 0.23 | 3.09 ± 0.085 | 3.19 ± 0.2
GIKAKHDKNIQKLLKQL [ISW2] | 2.41 ± 0.048 | 2.45 ± 0.048 | 2.45 ± 0.051 | 2.79 ± 0.033
GIKVLPETCLFVSYFGK [YML103C/NUP188] | 2.7 ± 0.055 | 2.42 ± 0.038 | 2.44 ± 0.074 | 2.68 ± 0.039

Sequence | protein stability index (doa10∆) | protein stability index (pdr5∆) | protein stability index (san1∆) | protein stability index (ubr1∆)
GIKYHATPPLKRFKDME [SMC1] | 3.1 ± 0.1 | 3.25 ± 0.075 | 2.95 ± 0.07 | 3.25 ± 0.076
GILLETISVPQIRDVME [RRP6] | 2.74 ± 0.072 | 2.56 ± 0.06 | 2.89 ± 0.056 | 2.64 ± 0.067
GILYMGQGEQVDDVLET [RPN1] | 1.23 ± 0.16 | 1.19 ± 0.15 | 1.07 ± 0.18 | 1.23 ± 0.11
GINNLSEIWDVSRGQSA [PRP8] | 3 ± 0.13 | 2.67 ± 0.12 | 2.74 ± 0.29 | 2.26 ± 0.073
GINSKSGKPFIAGFDLI [PUP3] | 3.11 ± 0.089 | 3.29 ± 0.094 | 3.3 ± 0.13 | 3.06 ± 0.081
GISEVQARKSKSVSFYA [RPT5] | 3.4 ± 0.064 | 3.39 ± 0.093 | 3.37 ± 0.056 | 3.31 ± 0.063
GISMFDYISGISVGLYD [SKI6] | 2.02 ± 0.092 | 2.02 ± 0.069 | 2.03 ± 0.069 | 2.1 ± 0.052
GISSTLVSANNDNNSPH [YLR018C/POM34] | 2.62 ± 0.051 | 2.89 ± 0.06 | 3.01 ± 0.058 | 2.96 ± 0.067
GISVPFHSTYLMNGVKP [FAS1] | 1.46 ± 0.042 | 1.51 ± 0.04 | 1.27 ± 0.074 | 1.39 ± 0.027
GKEFGDVSVKMGNTKVH [RRP45] | 1.38 ± 0.073 | 1.53 ± 0.083 | 2.25 ± 0.069 | 1.95 ± 0.1
GKISKPRFLNKQERSKQ [PRP28] | 1.9 ± 0.088 | 2.46 ± 0.13 | 3.33 ± 0.11 | 2.13 ± 0.088
GKKASLNVGNVLPLGSV [RPL2A] | 2.4 ± 0.051 | 2.29 ± 0.057 | 2.51 ± 0.078 | 2.56 ± 0.042
GKLEVPGYVDIVKTSSG [RPS19A] | 3.38 ± 0.15 | 2.85 ± 0.092 | 3.19 ± 0.07 | 3.2 ± 0.06
GKLGQIDYALTAVKQGV [PRE8] | 1.36 ± 0.21 | 1.93 ± 0.13 | – | 2.54 ± 0.099
GKLISNLSSTPMETLLS [YML031W/NDC1] | 2.61 ± 0.11 | 2.92 ± 0.12 | 2.51 ± 0.11 | 2.5 ± 0.063
GKMVRAQDVALAKKWFL [PRP8] | 2.34 ± 0.12 | 2.51 ± 0.14 | 2.57 ± 0.23 | 3.05 ± 0.24
GLDQSRIPFSERKLKFS [FAS1] | 1.81 ± 0.061 | 1.29 ± 0.059 | 1.11 ± 0.085 | 1.12 ± 0.048
GLELSNFKSYRGVTKVG [SMC1] | 3.04 ± 0.094 | 3.09 ± 0.14 | 2.55 ± 0.15 | 2.45 ± 0.12
GLESQIQEIKESVELPL [RPT2] | 2.11 ± 0.087 | 2.3 ± 0.073 | 2.48 ± 0.067 | 2.83 ± 0.072
GLLDESPNRLRVRTDDS [YML031W/NDC1] | 1.5 ± 0.098 | 1.82 ± 0.15 | 1.67 ± 0.12 | 1.64 ± 0.051
GMKVKADRDESSPYAAM [RPS14B] | 1.32 ± 0.067 | 1.09 ± 0.12 | 1.14 ± 0.22 | 1.2 ± 0.089
GMMSTTGTARLNSMPNN [YJL039C/NUP192] | – | 2.99 ± 0.15 | 3.1 ± 0.089 | 3.22 ± 0.11
GMPHKFYQGKTGVVYNV [RPL21A] | 2.84 ± 0.088 | 2.86 ± 0.077 | 2.53 ± 0.078 | 2.61 ± 0.067
GNASLKYIALQVIVDIF [YCG1] | 1.2 ± 0.069 | 1.36 ± 0.076 | 1.19 ± 0.12 | 1.54 ± 0.15
GNDNNSDSNANAAVAGV [SWI3] | 3.21 ± 0.057 | 3.35 ± 0.056 | 3.31 ± 0.029 | 3.18 ± 0.058
